Measurements as given in patent US20240010701A1 (ALX ONCOLOGY, published 2024).
Changes are numbered by the printed parent chain. One block for each binder: values may come before it.

What was measured:
[1] = biological target: T1, cynomolgus Nectin-4 extracellular domain (ECD) with C-terminal His6 (cynomolgus, UniProt Q96NY8 32-349 (human entry)); experiment: SPR (Biacore 8K), DRUG B captured on Protein A chip, nectin-4-ECD as analyte, single-cycle kinetics, 1:1 fit, 37° C; 37° C., cynomolgus nectin-4-ECD
T1 construct: also called Cyno Nectin-4-ECD; cynomolgus nectin-4-ECD
T1 chain: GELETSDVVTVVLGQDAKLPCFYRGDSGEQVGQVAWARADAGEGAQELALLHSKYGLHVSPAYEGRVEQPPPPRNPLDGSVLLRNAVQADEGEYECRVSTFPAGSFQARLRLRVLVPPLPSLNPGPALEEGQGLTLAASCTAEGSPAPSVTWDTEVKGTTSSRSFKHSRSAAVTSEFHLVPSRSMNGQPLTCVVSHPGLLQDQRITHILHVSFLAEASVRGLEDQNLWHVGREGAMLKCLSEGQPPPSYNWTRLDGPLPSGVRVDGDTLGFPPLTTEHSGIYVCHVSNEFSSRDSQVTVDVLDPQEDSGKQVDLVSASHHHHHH

[2] = biological target: T2, hFcγIa (human, UniProt P12314 16-292); experiment: SPR (Biacore 8K), 25° C, antibody captured on nectin-4-coated chip, receptor ECD as analyte, single-cycle kinetics, 1:1 fit
T2 construct: extracellular domain; also called hFcγRI; CD64
T2 sequence (P12314 16-292): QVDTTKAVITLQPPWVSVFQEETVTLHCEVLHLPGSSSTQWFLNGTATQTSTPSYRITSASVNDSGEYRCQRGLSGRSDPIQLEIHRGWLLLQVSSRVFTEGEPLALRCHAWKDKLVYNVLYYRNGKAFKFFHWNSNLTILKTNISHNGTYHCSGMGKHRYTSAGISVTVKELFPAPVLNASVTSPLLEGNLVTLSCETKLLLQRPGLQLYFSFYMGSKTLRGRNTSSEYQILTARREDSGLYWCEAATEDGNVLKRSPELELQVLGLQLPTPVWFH
Source text: (§1) The data was processed and analyzed with Biacore 8K Evaluation Software Version 3.0.12.15655 (Cytiva, Global Life Sciences Solutions USA LLC, Marlborough, MA). Reference responses from flow cell 1 were subtracted from the active responses from flow cell 2 to obtain the subtracted data (2-1). The responses from the nearest buffer blank injection were then subtracted from the reference subtracted data (2-1) to yield double-referenced data. For hFcγRI, these double-reference data were fit to a simple 1:1 Langmuir binding model with mass transport to determine the apparent association (ka) and dissociation rate constants (kd). The apparent equilibrium dissociation constant or affinity constant was then calculated based on their ratio as (KD=kd/ka). Binding affinity KD values for all the other hFcγR interactions (hFcγIIa-H131, hFcγIIa-R131, hFcγIIIa, and FcγIIIaV158F) were analyzed using a “steady state” (or “equilibrium binding”) method due to their fast on rates and fast off rates.

[3] = biological target: T3, human Nectin-4 extracellular domain (ECD) with C-terminal His6 (human, UniProt Q96NY8 32-349); experiment: SPR (Biacore 8K), DRUG B captured on Protein A chip, nectin-4-ECD as analyte, single-cycle kinetics, 1:1 fit, 37° C; 37° C., human nectin-4-ECD
T3 construct: also called human Nectin-4-ECD; human nectin-4 ECD
T3 sequence: T1 chain with A39V, V230I
Method: (§2) Kinetic injection method used was “single cycle kinetics” (also known as “kinetic titration”) (Karlsson et al. (2006) Analytical Biochemistry. 349(1):136-147).
(§3) The interactions of DRUG B, i.e., an anti-Nectin-4 monoclonal antibody, with the extracellular domain (ECD) of human nectin-4 were analyzed by flowing nectin-4-ECD over DRUG B captured (200-400 RUs) on Biacore Series S Sensor Chip Protein A. DRUG B, at ˜1 μg/mL concentration was captured in flow cell 2 of each channel at flow rate 10 μL/min for 60 seconds (s) contact time while buffer was used for Flow cell 1 respectively. The human nectin-4-ECD analytes were prepared as a 5-membered 3-fold dilution series with top nominal concentration of 300 nM, and each analyte series was injected in order of ascending concentration using a single-cycle kinetics method. Association and dissociation times were monitored for 120s and 1800s, respectively, at 30 μL/min flow rate. The surfaces were regenerated with 75 mM phosphoric acid at pH 1.6 using two pulses of 15s at 30 μL/min flow rate.
(§4) To analyze the data, the following processing steps were applied. Reference responses from flow cell 1 (reference surface) were subtracted from the active responses from flow cell 2 (reaction surface) to obtain the subtracted data (2-1). […]

[4] = biological target: T4, hFcRn ECD protein (human, UniProt P55899 24-297; P61769 21-119); experiment: SPR (Biacore 8K), 25° C, PBS pH 5.8, antibody captured on nectin-4-coated chip, hFcRn ECD as analyte, steady-state analysis
T4 construct: extracellular domain; also called human FcRn; neonatal Fc receptor
Method: (§5) All experiments were performed at 25° C. using a Biacore 8K equipped with S-type sensor chips and the kinetics data analyses were done using the Biacore Insight Evaluation Software. The running buffer was PBS pH 5.8 with 0.01% Tween-20 for hFcRn interactions and the running buffer for capture was HBS-EP+. Analyte hFcRn ECD protein was used at its nominal concentrations. A “single cycle kinetics” injection mode was used.
(§6) The interactions of DRUG B and DRUG C with hFcRn were analyzed by flowing the hFcRn ECD protein over DRUG B or DRUG C captured on a nectin-4-coated CMS chip. Up to 2400 RU of human nectin-4 ECD were immobilized on both flow cells (1 and 2) of a CMS chip using amine chemistry following Cytiva amine coupling kit instructions. DRUG B or DRUG C were captured on flow cell 2 of each channel for 120 seconds at 10 μL/min at […] in HBS-EP+(100-200 RUs) in a surface preparation method. The hFcRn run was done in PBS pH 5.8 with 0.01% Tween-20. […] Association and dissociation times were monitored for 120s and 600s, respectively. […]
(§7) The data was processed and analyzed with Biacore 8K Evaluation Software Version 3.0.12.15655 (Cytiva, Global Life Sciences Solutions USA LLC, Marlborough, MA). […] Binding affinity KD values were analyzed using a “steady state” (or “equilibrium binding”) method due to their fast on rates and fast off rates.

[5] = biological target: T5, hFcγIIa-H131 (human, UniProt P12318 34-217); experiment: SPR (Biacore 8K), 25° C, antibody captured on nectin-4-coated chip, receptor ECD as analyte, steady-state analysis
T5 construct: extracellular domain; H at position 131 of the H/R131 polymorphism; also called hFcγRIIa (CD32a) H131
T5 sequence (looked up): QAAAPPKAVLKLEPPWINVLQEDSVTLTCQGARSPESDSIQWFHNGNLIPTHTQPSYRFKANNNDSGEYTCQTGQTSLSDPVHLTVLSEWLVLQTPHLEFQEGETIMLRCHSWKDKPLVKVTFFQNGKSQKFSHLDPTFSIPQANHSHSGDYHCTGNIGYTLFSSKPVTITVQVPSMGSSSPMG
Source text: as §1

[6] = biological target: T6, hFcγIIa-R131 (human, UniProt P12318 36-218); experiment: as above
T6 construct: extracellular domain; Position 131 is the customary mature-protein numbering, not the precursor numbering of the database entry; also called hFcγRIIa (CD32a) R131
T6 sequence (looked up): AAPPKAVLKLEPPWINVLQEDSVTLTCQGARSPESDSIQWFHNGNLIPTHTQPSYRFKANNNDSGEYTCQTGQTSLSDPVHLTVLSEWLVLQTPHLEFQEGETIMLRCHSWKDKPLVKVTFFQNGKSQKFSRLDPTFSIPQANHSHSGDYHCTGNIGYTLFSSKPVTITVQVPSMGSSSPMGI
Source text: as §1

[7] = biological target: T1, cynomolgus Nectin-4 extracellular …; experiment: SPR (Biacore 8K), DRUG B captured on Protein A chip, nectin-4-ECD as analyte, single-cycle kinetics, 1:1 fit, 25° C; 25° C., cynomolgus nectin-4-ECD
[8] = biological target: T3, human Nectin-4 extracellular domain …; experiment: SPR (Biacore 8K), DRUG B captured on Protein A chip, nectin-4-ECD as analyte, single-cycle kinetics, 1:1 fit; temperature dropped in the text, 25° C by context; 25° C. (by context; temperature dropped in the text), human nectin-4-ECD
Method: as §2, §3, §4

[9] = biological target: T3, human Nectin-4 extracellular domain …; experiment: SPR, capture on chip with immobilized human nectin-4 ECD (FcγR runs)
[10] = biological target: T2, hFcγIa; experiment: SPR (Biacore 8K), 25° C, ADC captured on nectin-4-coated chip, receptor ECD as analyte, single-cycle kinetics, 1:1 fit
Source text: as §1

[11] = biological target: T4, hFcRn ECD protein; experiment: SPR (Biacore 8K), 25° C, PBS pH 5.8, ADC captured on nectin-4-coated chip, hFcRn ECD as analyte, steady-state analysis
Method: as §5, §6, §7

[12] = biological target: T5, hFcγIIa-H131; experiment: SPR (Biacore 8K), 25° C, ADC captured on nectin-4-coated chip, receptor ECD as analyte, steady-state analysis
Source text: as §1

[13] = biological target: T6, hFcγIIa-R131; experiment: as above
Source text: as §1

Kd [1]: ~50.7 nM
Kd [2]: 0.056 nM
Kd [3]: ~36.3 nM
Kd [4]: 767 nM
Kd [5]: 772 nM
Kd [6]: 783 nM
Kd [7]: ~22.6 nM
Kd [8]: ~14.5 nM
B1: DRUG B (enfortumab similar antibody that specifically binds human nectin-4) (antibody, human IgG1, kappa)
heavy: not shown
light: DIQMTQSPSSVSASVGDRVTITCRASQGISGWLAWYQQKPGKAPKFLIYAASTLQSGVPSRFSGSGSGTDFTLTISSLQPEDFATYYCQQANSFPPTFGGGTKVEIKRTVAAPSVFIFPPSDEQLKSGTASVVCLLNNFYPREAKVQWKVDNALQSGNSQESVTEQDSKDSTYSLSSTLTLSKADYEKHKVYACEVTHQGLSSPVTKSFNRGEC
notes: Expressed in Expi293F cells, about 99% monomer; also called enfortumab similar Ab; Enfortumab similar mAb

binding result [9]: binds
Kd [10]: 0.091 nM
Kd [11]: 812 nM
Kd [12]: 921 nM
Kd [13]: 846 nM
B2: DRUG C (enfortumab vedotin similar antibody-drug conjugate) (antibody, human IgG1, kappa)
heavy: not shown
light: B1 light
modifications: MC-Val-Cit-PAB-MMAE linker-payload conjugated via interchain cysteines of the antibody; average drug-to-antibody ratio 3.85:1
notes: DRUG B conjugated to MC-Val-Cit-PAB-MMAE; also called enfortumab vedotin similar ADC; copies: 2 + 2
